The values that follow come from patent US20090304651A1 (published 2009).

Substitutions are numbered along the chain they refer to. Names and notes keep the numbering of the source.

Assay [1] has as its target T1, recombinant human IGF-II (Insulin-like Growth Factor II) (human, UniProt P01344 25-91, biotinylated (Biotinyl-IGF-II, GroPep) where immobilised in SPR, site not stated; not biotinylated in ITC and as SPR analyte).
T1 construct: also called IGF2; IGF-2
Kind of assay: SPR, IGF-II immobilised, steady state. The protocol:
Kinetic analysis by Surface Plasmon Resonance (SPR) was conducted on a BIAcore 3000 biosensor (BIAcore, Uppsala, Sweden) at 25° C. in HBS-EP (10 mM HEPES, pH 7.4, 150 mM NaCl, 3 mM EDTA, 0.005% surfactant P20) at a flow rate of 40 μl/min. […] Kinetic experiments consisted of a two minute injection of analyte followed by a 100 s dissociation phase in running buffer, after which the binding surface was regenerated with a 2 minute injection of 2 M MgCl₂. A blank flow cell was used for in-line reference subtraction of changes due to differences in refractive index of running buffer versus sample and a buffer-only injection was used to subtract instrument noise and drift. Injections were performed in duplicate for each concentration and in a randomised order. Kinetic parameters were determined by global fitting of sensorgrams to a two-state (conformational change) binding model using BIAevaluation software version 4.0.1. In all cases the minor component made an insignificant contribution to the overall affinity and as such only the kinetic parameters of the major binding component were used. For each interaction the dissociation affinity constant (KD) was also calculated by fitting of the response of each concentration at equilibrium to a steady-state affinity model using BIAevaluation. […]
On the technique in general: Surface plasmon resonance follows binding to a sensor surface in real time, without labels.

Assay [2] deals with T1, recombinant human IGF-II (Insulin-like …). Kind of assay: ITC. How it is done:
Calorimetric measurements were performed using a VP-ITC microcalorimeter (MicroCal). All solutions were thoroughly degassed before use by stirring under vacuum. […] The sample cell contained either wild type domain 11 (7 uM) or the E1544A mutant (8 μM), also in HBS-E buffer. To correct for the heat effects of dilution and mixing, reaction heats obtained from a control experiment, in which IGF2 was injected into HBS-E, were subtracted. Calorimetric data were analysed using MicroCal ORIGIN software (version 5.0) supplied with the instrument. Thermodynamic parameters were derived by fitting the binding isotherms to a single-site binding model. Values for dissociation affinity constants (KD) were determined from duplicate experiments.
In order to validate the SPR sensorgram data, ITC was used to assess the binding affinity between domain 11 and IGF-II. The affinity of the E1544A mutant was also assessed by ITC in order to confirm whether use of a second technique agreed as to the apparent increase in affinity (FIG. 6 and Table 6). Titrations were performed using 17×15 μl injections of 40 μM IGF-II (after an initial 7.51 injection) into the reaction cell containing wild type domain 11 or the E1544A mutant. […] The two fold differences may be simply accounted for by the fidelity of both techniques.
Background: ITC needs no label: the signal is the heat of the interaction.

Assay [3] shares this target. Kind of assay: SPR.

T1 sequence (P01344 25-91 limits assumed): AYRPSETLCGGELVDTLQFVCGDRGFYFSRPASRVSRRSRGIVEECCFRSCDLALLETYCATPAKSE

B1: wild type IGF2R domain 11 (amino acids 1511-1650) with C-terminal His6 tag, from Pichia pastoris (receptor)
chain: NEHDDCQVTNPSTGHLFDLSSLSGRAGFTAAYSEKGLVYMSICGENENCPPGVGACFGQTRISVGKANKRLRYVDQVLQLVYKDGSPCPSKSGLSYKSVISFVCRPEAGPTNRPMLISLDKQTCTLFFSWHTPLACEQATHHHHHH
notes: also called WT; wild type domain 11
One may read the Kd as a measure of binding affinity in units of concentration. In the case of B1, the Kd in assay [1] is 103 nM.

B2: IGF2R domain 11 E1544A (amino acids 1511-1650, C-terminal His6 tag, from Pichia pastoris) (receptor)
chain: B1 chain with E34A
B2: the “relative affinity increase over wild type” value in assay [2] was around 2 fold; in assay [3] it was around 2.5 fold.
